The values that follow come from PMC3342945.

Series [1] concerns the target T1, membrane IL-6R on BAF/gp130/IL6R/TNF cells (Homo sapiens) (UniProt P08887).
T1 sequence: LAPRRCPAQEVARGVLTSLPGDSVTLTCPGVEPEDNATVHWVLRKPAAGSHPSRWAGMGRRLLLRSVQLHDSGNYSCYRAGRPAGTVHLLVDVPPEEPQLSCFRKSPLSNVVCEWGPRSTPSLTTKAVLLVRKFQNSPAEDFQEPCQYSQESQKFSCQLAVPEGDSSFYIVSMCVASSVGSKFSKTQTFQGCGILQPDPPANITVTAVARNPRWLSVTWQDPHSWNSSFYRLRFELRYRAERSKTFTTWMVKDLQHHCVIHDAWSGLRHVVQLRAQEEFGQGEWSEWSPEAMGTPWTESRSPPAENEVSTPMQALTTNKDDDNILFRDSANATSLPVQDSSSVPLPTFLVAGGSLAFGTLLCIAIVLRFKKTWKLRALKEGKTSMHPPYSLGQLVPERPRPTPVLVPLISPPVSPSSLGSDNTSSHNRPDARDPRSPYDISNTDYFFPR
As to the kind of experiment: flow cytometry. Background: In flow cytometry, cells or beads pass a laser one at a time.

Series [2] has as its target T2, Hyper-IL-6 (IL-6 and sIL-6R fusion, flexible linker) (Homo sapiens, UniProt P08887 113-323+P05231:29-212, internal_change). As to the kind of experiment: filter binding.
For series [3], the target named is T2, Hyper-IL-6 (IL-6 and sIL-6R fusion, …). In words: filter binding. This is another data set of the same source.

Regarding GGGGAGGCUGUGGUGAGGG [AIR-3A Atto647N], the Kd in series [1] was 8.5 nM.
As to GGGGAGGCUGUGGUGAGGG (structured_RNA) [AIR-3A], the Kd in series [2] was 60.4 ± 16 nM.
Turning to GGGGAGGCUGUGGUGAGUG (ssRNA) [G18U], the binding result in series [3] is listed as “no binding”.
On to GGGGAGGCUGUGGUGAUGG (ssRNA) [G17U], for which the binding result in series [3] was “no binding”.
As for GGGGAGGCUGUGGUGAUUG (ssRNA) [G17U/G18U], the binding result in series [3] is listed as “no binding”.

One may read the Kd as the free concentration of one partner at which half of the binding sites on the other are occupied at equilibrium, for simple one-to-one binding. A higher Kd goes with weaker binding.
